Results on one molecule are retold here after CN113461818A (UNIV XUZHOU MEDICAL, dated 2021).

The target of this assay is T1, CD276抗原 (UniProt Q5ZPR3 29-466, limits assumed).
T1 construct: also called CD276靶抗原; CD276目的蛋白
T1 sequence (looked up): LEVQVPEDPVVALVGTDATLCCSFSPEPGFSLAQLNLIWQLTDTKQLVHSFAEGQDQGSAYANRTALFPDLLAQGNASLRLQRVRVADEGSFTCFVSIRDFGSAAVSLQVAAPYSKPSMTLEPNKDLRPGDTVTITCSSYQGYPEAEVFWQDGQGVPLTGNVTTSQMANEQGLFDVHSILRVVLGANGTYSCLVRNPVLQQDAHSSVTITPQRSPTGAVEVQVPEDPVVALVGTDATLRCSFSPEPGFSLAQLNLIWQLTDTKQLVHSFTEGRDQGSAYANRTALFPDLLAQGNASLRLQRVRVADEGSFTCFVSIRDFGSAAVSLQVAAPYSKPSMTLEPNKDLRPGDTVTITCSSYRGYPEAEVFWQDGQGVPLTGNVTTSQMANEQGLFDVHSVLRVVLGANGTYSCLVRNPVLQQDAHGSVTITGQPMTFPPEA
Nature of the assay: phage ELISA on coated antigen, TMB, OD450nm. In general terms: ELISA stands for enzyme-linked immunosorbent assay.

B1: CD276-03 monoclonal phage (clone 03 scFv displayed on phage) (scFv)
scFv: QVQLVQSGGGVVQPGRSLRLSCSASGFTFNSHGMHWVRQAPGKGLEWVGVIWYDGSNAYYADSAKGRFTISRDNSKNSVYLQLNSLGVEDTALYYCAKSDRPHPMGFYYYMDVWGQGTTVTVSSGGGGSGGGGSQSALTQPASVSGSPGQSITISCTGTSSDVGGYNYVSWYQQHPGKAPKLMIYDVSNRPSGVSNRFSGSKSGNTASLTISGLQAEDEADYYCSSYTSSSTLVFGGGTK
notes: The phage coat protein fusion partner is not described; also called 克隆03
Consider B1, for which the binding result is “no binding”.
